Changes are numbered by the printed parent chain.
What was measured:
Assay in all cases: AlphaScreen or HTRF
Conditions in all cases: remark: other sources report otherwise
[1] = molecular target: T1, His-tagged SMAD4 WT (Mothers against decapentaplegic homolog 4), Q13485
T1 chain: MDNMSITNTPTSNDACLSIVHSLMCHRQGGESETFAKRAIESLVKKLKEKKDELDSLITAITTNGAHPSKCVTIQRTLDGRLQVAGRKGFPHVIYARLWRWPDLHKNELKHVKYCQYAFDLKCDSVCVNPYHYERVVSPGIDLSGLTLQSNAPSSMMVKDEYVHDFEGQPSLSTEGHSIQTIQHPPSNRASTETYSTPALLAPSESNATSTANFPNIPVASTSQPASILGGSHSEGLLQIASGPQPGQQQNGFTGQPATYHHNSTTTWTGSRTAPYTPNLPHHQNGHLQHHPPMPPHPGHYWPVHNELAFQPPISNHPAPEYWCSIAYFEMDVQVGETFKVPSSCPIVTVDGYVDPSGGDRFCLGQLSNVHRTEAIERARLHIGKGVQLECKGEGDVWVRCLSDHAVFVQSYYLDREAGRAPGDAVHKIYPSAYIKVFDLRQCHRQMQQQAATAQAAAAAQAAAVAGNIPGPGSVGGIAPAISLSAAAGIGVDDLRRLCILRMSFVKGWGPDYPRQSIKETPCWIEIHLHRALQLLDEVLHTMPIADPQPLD

[2] = molecular target: T2, His-tagged SMAD4 R361H, Q13485
T2 chain: T1 chain with R361H

[3] = molecular target: T3, His-tagged SMAD4 R361C, Q13485
T3 chain: T1 chain with R361C

B1: Flag-tagged SMAD3 WT, P84022 1-425 (natural protein)
chain: MSSILPFTPPIVKRLLGWKKGEQNGQEEKWCEKAVKSLVKKLKKTGQLDELEKAITTQNVNTKCITIPRSLDGRLQVSHRKGLPHVIYCRLWRWPDLHSHHELRAMELCEFAFNMKKDEVCVNPYHYQRVETPVLPPVLVPRHTEIPAEFPPLDDYSHSIPENTNFPAGIEPQSNIPETPPPGYLSEDGETSDHQMNHSMDAGSPNLSPNPMSPAHNNLDLQPVTYCEPAFWCSISYYELNQRVGETFHASQPSMTVDGFTDPSNSERFCLGLLSNVNRNAAVELTRRHIGRGVRLYYIGGEVFAECLSDSAIFVQSPNCNQRYGWHPATVCKIPPGCNLKIFNNQEFAALLAQSVNQGFEAVYQLTRMCTIRMSFVKGWGAEYRRQTVTSTPCWIELHLNGPLQWLDKVLTQMGSPSIRCSSVS
**Q.** For B1, which decrease of the PPI signal with 5'-FAM-SBE4 Mut dsDNA against WT dsDNA [1] is on record?
**A.** The decrease of the PPI signal with 5'-FAM-SBE4 Mut dsDNA against WT dsDNA was 15%.

**Q.** And the reduction of the PPI signal against SMAD4 WT [2]?
**A.** Its reduction of the PPI signal against SMAD4 WT is 75%.

**Q.** And the reduction of the PPI signal against SMAD4 WT [3]?
**A.** Its reduction of the PPI signal against SMAD4 WT is 75%.

From paper doi:10.1101/2023.07.15.549169
